Results from US20030032785.

Key:
[1] = system: T1, VEGF165 (vascular endothelial growth factor, 165 aa form) (Homo sapiens), P15692-4; experiment: competition; settings: 2'-NH2 at all C and U; 2'-OMe A5,A16,G13,G17,G20,G24-26,G28; PS 2'-deoxy T caps 1-4 and 29-33; 125I-VEGF receptor binding
T1 sequence: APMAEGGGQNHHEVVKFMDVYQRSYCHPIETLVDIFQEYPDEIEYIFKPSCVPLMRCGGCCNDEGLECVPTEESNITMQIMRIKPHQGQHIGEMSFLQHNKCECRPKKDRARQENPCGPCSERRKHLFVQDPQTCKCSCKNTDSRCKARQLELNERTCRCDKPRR

[2] = system: T1, VEGF165 (vascular endothelial growth factor, 165 aa form) (Homo sapiens), P15692-4; experiment: filter; settings: 2'-NH2 at all C and U; 2'-OMe A5,A16,G13,G17,G20,G24-26,G28; PS 2'-deoxy T caps 1-4 and 29-33

**Q.** Which Ki [1] does the source give for “TTTACCCUGAUGGUAGACGCCGGGGUGTTTTT [NX-214]” here?
**A.** 1 nM

**Q.** And the Kd [2]?
**A.** 0.2 nM
